From paper PMC11410209

Target: 2526 IgG3
Assay: ELISA
Conditions: read off a plot

Substance | response (parent: est. 4.0) | response
H1 NC99 trimer, wild type HA (Fig 5A) (from UniProt Q6WG00) N23T | 2.8 Abs (450nm) | 
WT-NTD N61A |  | 2.7 Abs (450nm)
WT-NTD N149A |  | 1 Abs (450nm)
WT-NTD N165A |  | 2.7 Abs (450nm)
WT-NTD N234A |  | 1.7 Abs (450nm)
